{"source": "patent US20020182666", "key": {"[1]": {"target": "T1, recombinant human full-length TrpRS with C-terminal tag of six histidine residues", "T1 chain": "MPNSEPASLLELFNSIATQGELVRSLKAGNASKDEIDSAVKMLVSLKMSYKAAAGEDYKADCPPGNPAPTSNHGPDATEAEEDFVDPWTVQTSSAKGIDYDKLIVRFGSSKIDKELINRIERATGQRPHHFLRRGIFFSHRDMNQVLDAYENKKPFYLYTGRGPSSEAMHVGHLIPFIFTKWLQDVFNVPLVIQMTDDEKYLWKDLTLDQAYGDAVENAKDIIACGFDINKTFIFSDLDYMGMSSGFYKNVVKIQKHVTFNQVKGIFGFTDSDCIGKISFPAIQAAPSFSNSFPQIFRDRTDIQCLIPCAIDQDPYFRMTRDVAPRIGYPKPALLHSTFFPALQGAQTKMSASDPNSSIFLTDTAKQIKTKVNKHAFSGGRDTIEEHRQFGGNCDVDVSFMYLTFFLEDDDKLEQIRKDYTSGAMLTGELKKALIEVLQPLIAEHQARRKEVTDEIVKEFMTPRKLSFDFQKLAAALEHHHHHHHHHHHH"}, "[2]": {"target": "T2, recombinant human full-length TyrRS with C-terminal tag of six histidine residues", "T2 chain": "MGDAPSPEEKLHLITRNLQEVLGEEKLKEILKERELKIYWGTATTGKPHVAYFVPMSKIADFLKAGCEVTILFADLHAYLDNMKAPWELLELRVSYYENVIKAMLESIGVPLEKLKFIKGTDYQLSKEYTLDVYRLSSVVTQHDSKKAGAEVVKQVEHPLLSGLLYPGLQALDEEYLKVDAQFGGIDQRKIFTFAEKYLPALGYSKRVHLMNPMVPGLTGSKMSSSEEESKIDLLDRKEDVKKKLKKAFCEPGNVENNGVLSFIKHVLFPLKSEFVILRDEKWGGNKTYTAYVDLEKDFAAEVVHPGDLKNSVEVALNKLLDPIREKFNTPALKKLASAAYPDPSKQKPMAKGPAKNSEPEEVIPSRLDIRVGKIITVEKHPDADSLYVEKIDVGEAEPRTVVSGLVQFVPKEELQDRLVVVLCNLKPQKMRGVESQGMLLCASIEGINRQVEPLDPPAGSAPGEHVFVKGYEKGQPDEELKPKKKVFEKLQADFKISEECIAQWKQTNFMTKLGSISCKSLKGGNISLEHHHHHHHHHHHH"}}}
{"protein": "PMN elastase (protein) IVGGRRARPHAWPFMVSLQLRGGHFCGATLIAPNFVMSAAHCVANVNVRAVRVVLGAHNLSRREPTRQVFAVQRIFENGYDPVNLLNDIVILQLNGSATINANVQVAQLPAQGRRLGNGVQCLAMGWGLLGRNRGIASVLQELNVTVVTSLCRRSNVCTLVRGRQAGVCFGDSGSPLVCNGLIHGIASFVRGGCASGLYPDAFAPVAQFVNWIDSIIQ", "values": [{"measurement": "cleavage of full-length TrpRS by PMN elastase (SDS-PAGE)", "setting": "[1]", "value": "PMN elastase cleavage of the 54 kDa full-length TrpRS generated a major fragment of 47 kDa and a minor fragment of 44 kDa"}, {"measurement": "cleavage of full-length TyrRS by PMN elastase (SDS-PAGE, immunoblot)", "setting": "[2]", "value": "the addition of PMN elastase to full-length TyrRS generated a doublet of ~40 kD fragments and a ~24 kD fragment"}]}
